Laboratory results reported in patent US20220127354A1 (Amgen, published 2022).
Numbering of substitutions follows the chain as printed. Names and notes keep the numbering of the source.

T1: ckCDH19(1-43)::FLAG::ckCDH19(44-468)::huCDH19(464-772) (construct O, Hu EC5) (human/chicken chimera)
T1 construct: leader (1-43 of the entry) left out
T1 chain: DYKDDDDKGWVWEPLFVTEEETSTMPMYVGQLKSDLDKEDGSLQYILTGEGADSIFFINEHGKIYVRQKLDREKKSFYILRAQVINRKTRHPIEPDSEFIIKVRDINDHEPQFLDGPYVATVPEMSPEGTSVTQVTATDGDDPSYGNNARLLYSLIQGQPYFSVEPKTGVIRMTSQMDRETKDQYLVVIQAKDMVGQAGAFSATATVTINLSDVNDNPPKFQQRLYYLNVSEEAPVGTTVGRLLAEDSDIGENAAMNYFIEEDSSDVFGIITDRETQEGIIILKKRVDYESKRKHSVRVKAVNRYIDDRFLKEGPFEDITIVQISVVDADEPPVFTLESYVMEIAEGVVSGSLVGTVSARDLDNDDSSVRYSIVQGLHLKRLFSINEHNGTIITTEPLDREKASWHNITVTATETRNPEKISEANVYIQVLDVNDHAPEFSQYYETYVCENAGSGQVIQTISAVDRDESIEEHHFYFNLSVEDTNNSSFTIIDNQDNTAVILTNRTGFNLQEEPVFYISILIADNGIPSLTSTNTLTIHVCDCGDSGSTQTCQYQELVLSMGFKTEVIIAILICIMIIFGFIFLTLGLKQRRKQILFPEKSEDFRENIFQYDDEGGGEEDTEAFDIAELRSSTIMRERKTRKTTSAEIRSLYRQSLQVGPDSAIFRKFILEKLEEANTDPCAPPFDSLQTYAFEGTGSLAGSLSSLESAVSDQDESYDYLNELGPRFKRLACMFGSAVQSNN

T2: ckCDH19(1-43)::FLAG::ckCDH19(44-776) (construct J, Ck EC1-5) (chicken)
T2 construct: the entry holds leader (1-43), FLAG and ckCDH19(44-776); leader left out; also called chicken Cadherin19
T2 chain: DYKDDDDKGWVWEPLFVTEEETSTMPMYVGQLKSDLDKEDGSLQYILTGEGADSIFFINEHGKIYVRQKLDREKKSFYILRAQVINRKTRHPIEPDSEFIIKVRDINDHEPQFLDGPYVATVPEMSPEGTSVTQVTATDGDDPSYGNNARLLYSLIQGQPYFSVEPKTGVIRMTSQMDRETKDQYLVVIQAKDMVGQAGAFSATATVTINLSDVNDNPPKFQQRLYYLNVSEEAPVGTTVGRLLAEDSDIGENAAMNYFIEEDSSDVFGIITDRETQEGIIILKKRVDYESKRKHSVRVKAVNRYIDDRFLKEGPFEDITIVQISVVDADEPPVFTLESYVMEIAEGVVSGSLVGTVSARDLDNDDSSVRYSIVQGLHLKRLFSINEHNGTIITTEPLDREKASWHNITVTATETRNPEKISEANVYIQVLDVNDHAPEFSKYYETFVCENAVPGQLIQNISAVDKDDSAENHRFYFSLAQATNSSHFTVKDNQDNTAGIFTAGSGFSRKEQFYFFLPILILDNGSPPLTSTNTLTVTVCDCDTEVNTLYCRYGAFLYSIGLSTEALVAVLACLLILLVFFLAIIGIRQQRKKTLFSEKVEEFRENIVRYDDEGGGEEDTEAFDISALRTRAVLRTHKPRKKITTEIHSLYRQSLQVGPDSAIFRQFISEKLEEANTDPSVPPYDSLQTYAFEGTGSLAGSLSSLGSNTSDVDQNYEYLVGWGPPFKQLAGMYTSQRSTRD

T3: ckCDH19(1-43)::FLAG::ckCDH19(44-141)::huCDH19(142-249)::ckCDH19(250-776) (construct L, Hu EC2) (human/chicken chimera)
T3 construct: leader (1-43 of the entry) left out
T3 chain: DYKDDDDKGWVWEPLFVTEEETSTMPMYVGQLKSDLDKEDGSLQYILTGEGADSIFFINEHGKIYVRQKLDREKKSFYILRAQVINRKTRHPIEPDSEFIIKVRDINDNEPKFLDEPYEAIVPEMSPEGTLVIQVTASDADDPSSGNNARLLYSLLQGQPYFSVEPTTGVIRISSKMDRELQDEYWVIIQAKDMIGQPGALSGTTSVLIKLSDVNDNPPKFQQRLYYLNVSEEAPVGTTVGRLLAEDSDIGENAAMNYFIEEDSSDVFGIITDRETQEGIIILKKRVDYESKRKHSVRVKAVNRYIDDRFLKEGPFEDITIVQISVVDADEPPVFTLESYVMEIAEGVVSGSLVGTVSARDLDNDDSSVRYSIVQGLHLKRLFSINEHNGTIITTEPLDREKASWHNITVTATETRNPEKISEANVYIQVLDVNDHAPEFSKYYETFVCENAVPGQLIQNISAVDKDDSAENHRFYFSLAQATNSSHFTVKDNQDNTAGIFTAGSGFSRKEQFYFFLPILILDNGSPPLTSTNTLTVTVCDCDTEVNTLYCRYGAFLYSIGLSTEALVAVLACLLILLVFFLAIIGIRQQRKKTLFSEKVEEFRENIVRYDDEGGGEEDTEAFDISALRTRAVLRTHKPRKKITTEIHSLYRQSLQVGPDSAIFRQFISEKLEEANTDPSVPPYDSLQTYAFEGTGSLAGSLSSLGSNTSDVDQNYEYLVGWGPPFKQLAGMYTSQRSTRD

B1: hu anti-<huCDH19> 4A9 (Ab ID 13589) (antibody, human IgG1, lambda, V domains shown)
VH: QVQLQESGPGLVKPSETLSLTCTVSGGSISGYYWSWIRQPPGKGLEWFAYFSYSGSTNYNPSLKSRVTLSVDTSKNQFSLKLSSVTAADTAVYYCARNWAFHFDFWGQGTLVTVSS
VL: QSVLTQPPSVSGAPGQRVTISCTGSSSNIGTGYAVHWYQQFPGTAPKLLIYGNNNRPSGVPDRFSGSKSGTSASLAITGLQAEDEADYYCQSYDSRLSGWVFGGGTKLTVLG
notes: huIgG1z / huLLC-C1; Bin 1
B2: hu anti-<huCDH19> 26D1.1 (Ab ID 13882) (antibody, human IgG1, lambda, V domains shown)
VH: QVQLVQSGAEVKKPGASVKVSCKASRYTFTSYYMSWVRQAPGQGLEWMGIIHPSGGDTTYAQKFQGRVTMTGDTSTSTVYMELSSLRSEDTAVYYCARGGIKLWLHFDYWGQGTLVTVSS
VL: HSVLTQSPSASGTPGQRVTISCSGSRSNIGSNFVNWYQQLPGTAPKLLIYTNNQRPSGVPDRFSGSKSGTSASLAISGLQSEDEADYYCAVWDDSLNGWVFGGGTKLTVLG
notes: huIgG1z / huLLC-C2; Bin 2
B3: hu anti-<huCDH19> 25F8.1 (1-469)(F90Y) VH::huIgG1z + 25F8.1 (1-235)(K45Q,S102A,D111E) VL::huLLC-C2 (Ab ID 14096) (antibody, V domains shown)
VH: B2 VH with R26G, M34I, S35H, H52N, D57S, T59R, G72R, K102Q
VL: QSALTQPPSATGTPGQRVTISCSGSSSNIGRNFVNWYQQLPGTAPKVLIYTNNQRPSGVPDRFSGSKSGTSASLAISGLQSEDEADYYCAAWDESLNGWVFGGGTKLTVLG
notes: Engineered variant of 25F8; the entries already carry the changes; Bin 2
B4: anti-CDH19 antibody 2G6 (Ab ID 13588) (antibody, human IgG1, lambda, V domains shown)
VH: QVQLVESGGGVVQPGRSLRLSCAASGFTFSSYGMHWVRQAPGKGLEWVAFIWYDGSNKYYADSVKDRFTISRDNSKNTLYLQMKSLRAEDTAVYYCARRAGIIGTIGYYYGMDVWGQGTTVTVSS
VL: SYELTQPPSVSVSPGQTASITCSGDRLGEKYTCWYQQRPGQSPLLVIYQDTKRPSGIPERFSGSNSGNTATLTISGTQAMDEADYYCQAWDSSTVVFGGGTKLTVLG
notes: Bin 4
B5: hu anti-<huCDH19> 23A10.3 (1-474)(L92Q) VH::huIgG1z + 23A10.3 (1-231)(C42S) VL::huLLC-C2 (Ab ID 14077) (antibody, V domains shown)
VH: B4 VH with S31R, M34I, F50V, D66G, K84N, T91S, I103P, I106T
VL: B4 VL with T32V, C33S, R38K, L44I, T51N, R53W
notes: Engineered variant of 23A10; the entries already carry the changes; Bin 4
B6: hu anti-<huCDH19> 4B10 (Ab ID 13590) (antibody, V domains shown)
VH: QVQLVESGGGVVQPGRSLRLSCAASGFTFSSYDMHWVRQAPGKGLEWVAVISYDGTNEYYADSVKGRFTISRDTSKNTLYLQMNSLRAEDTAVYYCARERYFDWSFDYWGQGTLVSVSS
VL: EIVLTQSPGTLSLSPGERATLSCRASQSVSNTYLAWYHQRPGQAPRLLIYGASSRATGIPDRFSGSGSGTDFALTISSLEPEDFAVYYCQQYSNSWTFGQGTKVEIKR
notes: huIgG1z / huKLC; Bin 4
B7: anti-CDH19 antibody 4A2 (Ab ID 13592) (antibody, human IgG1, kappa, V domains shown)
VH: QVQLQESGPGLVKPSQTLSLTCTVSGGSISSSGYYWSWIRQHPGKGLEWIGYIYYTGSAYYNPSLKSRVTISVDTSKNQFSLKLSSVTAADTAVYYCARDGSSGWYFQYWGQGTLVTVSS
VL: EIVLTQSPGTLSLSPGERATLSCRASRNISSSYLAWYQQKPGQAPRLLIYGPSSRATGIPDRFSGSGSGTDFTLTISRLEPEDFTVYYCQQYGSSFTFGPGTKVDIKR
notes: Bin 4

Key:
Assay in all cases: flow cytometry, transfected 293T cells, 2 mM CaCl2;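 also: binding of Alexa647-labelled anti-CDH19 antibodies to cells expressing human/chicken CDH19 chimeras, read as cell-bound fluorescence, with mock-transfected cells as controls, n.d. meaning not determined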
[1] = biological target: T1, ckCDH19(1-43)::FLAG::ckCDH19(44-468)::hu …
Description: (§1) The experiment included assaying a subset of anti-CDH19 antibodies against chicken Cadherin19 to determine suitability for binning on these human/chicken chimeras.
(§2) The following binding assay was completed in presence of 2 mM CaCl₂). […] Cells were then washed one time and the amount of cell associated Alexa647-labelled Ab was quantitated by flow cytometry. The experiments included mock transfected controls.

[2] = biological target: T4, ckCDH19(1-43)::FLAG::ckCDH19(44-249)::huCDH19(250-364)::ckCDH19(365-776) (construct M, Hu EC3) (human/chicken chimera)
T4 construct: leader (1-43 of the entry) left out
Description: as §1, §2

[3] = biological target: huCDH19(44-772) with Flag tag (construct A, Hu EC1-5) (human, UniProt Q9H159 44-772)
Description: as §1, §2

[4] = biological target: T5, huCDH19(1-43)::FLAG::hu(44-141)::ckCDH19(142-776) (construct K, Hu EC1) (human/chicken chimera)
T5 construct: leader (1-43 of the entry) left out; also called huCDH19(44-141)::ckCDH19(142-776)
Description: as §1, §2

[5] = biological target: T2, ckCDH19(1-43)::FLAG::ckCDH19(44-776) …
Description: as §1, §2

[6] = biological target: T3, ckCDH19(1-43)::FLAG::ckCDH19(44-141)::hu …
Description: as §1, §2

| Binder | binding result [1] | binding result [2] | binding result [3] | binding result [4] | binding result [5] | binding result [6] |
| --- | --- | --- | --- | --- | --- | --- |
| B1 | no binding (tested: 5 ug/ml) | no binding (tested: 5 ug/ml) | binds | binds | no binding (tested: 5 ug/ml) | no binding (tested: 5 ug/ml) |
| B2 | no binding (tested: 5 ug/ml) | no binding (tested: 5 ug/ml) | binds | binds | no binding (tested: 5 ug/ml) | no binding (tested: 5 ug/ml) |
| B3 | no binding (tested: 5 ug/ml) | no binding (tested: 5 ug/ml) | binds | binds | no binding (tested: 5 ug/ml) | no binding (tested: 5 ug/ml) |
| B4 | no binding (tested: 5 ug/ml) | binds | binds | no binding (tested: 5 ug/ml) | no binding (tested: 5 ug/ml) | no binding (tested: 5 ug/ml) |
| B5 | no binding (tested: 5 ug/ml) | binds | binds | no binding (tested: 5 ug/ml) | no binding (tested: 5 ug/ml) | no binding (tested: 5 ug/ml) |
| B6 | no binding (tested: 5 ug/ml) | binds | binds | no binding (tested: 5 ug/ml) | no binding (tested: 5 ug/ml) | no binding (tested: 5 ug/ml) |
| B7 | no binding (tested: 5 ug/ml) | – | – | no binding (tested: 5 ug/ml) | no binding (tested: 5 ug/ml) | no binding (tested: 5 ug/ml) |
